Tests used:
MBP-LIC1FL (human) = experiment: ITC; protein or peptide in the syringe titrated into the protein in the cell; 20 mM HEPES pH 7.5, 100 mM NaCl, 0.25 mM TCEP; temperature listed in the figures (20 °C for most titrations)
LIC1_(433–458) (human) = experiment: as above
MBP-LIC1_(1–461) (human) = experiment: as above
Hook1_(11–443) (human) = Hook1_(11–443) (human) (UniProt Q9UJC3); experiment: ITC; MBP-LIC1FL in the syringe, Hook1_(11–443) in the cell; 30 °C; 20 mM HEPES pH 7.5, 100 mM NaCl, 0.25 mM TCEP
Chain of Hook1_(11–443) (human) (Q9UJC3 11-443): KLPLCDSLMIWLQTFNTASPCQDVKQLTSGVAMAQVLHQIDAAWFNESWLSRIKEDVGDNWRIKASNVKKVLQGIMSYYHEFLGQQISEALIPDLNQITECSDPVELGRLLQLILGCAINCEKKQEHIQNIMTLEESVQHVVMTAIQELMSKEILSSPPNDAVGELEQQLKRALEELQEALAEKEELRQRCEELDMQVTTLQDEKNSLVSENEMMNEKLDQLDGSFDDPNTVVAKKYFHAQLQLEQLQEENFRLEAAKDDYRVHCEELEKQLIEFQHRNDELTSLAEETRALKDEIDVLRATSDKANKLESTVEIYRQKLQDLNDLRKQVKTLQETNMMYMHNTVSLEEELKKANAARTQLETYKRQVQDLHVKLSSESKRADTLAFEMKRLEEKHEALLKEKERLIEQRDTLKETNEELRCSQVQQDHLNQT

Chain of Hook1_(11–166) (Q9UJC3 11-166): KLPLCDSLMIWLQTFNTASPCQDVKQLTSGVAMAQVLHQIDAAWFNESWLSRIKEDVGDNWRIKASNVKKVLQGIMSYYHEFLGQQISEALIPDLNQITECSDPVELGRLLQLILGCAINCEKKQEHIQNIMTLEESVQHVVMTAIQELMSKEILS

Row | Kd (MBP-LIC1FL (human)) [µM] | stoichiometry N (MBP-LIC1FL (human)) | Kd (LIC1_(433–458) (human)) [µM] | Kd (MBP-LIC1_(1–461) (human)) [µM] | Kd (Hook1_(11–443) (human)) [µM] | stoichiometry N (Hook1_(11–443) (human)) | Substance
1 | 12.9 | 1 |  |  |  |  | Hook1_(1–239)GCN4 (from UniProt Q9UJC3-1 1-239)
2 | 12.7 | 1 | 15.7 | 10.1 |  |  | Hook1_(11–166) (from UniProt Q9UJC3-1 11-166) (domain or fragment)
3 |  |  |  |  | 8.1 | 1 | MBP-LIC1FL (natural protein)
